Here are results for one protein from publication PMC4476693, “Role of Subunit Exchange and Electrostatic Interactions on the Chaperone Activity of Mycobacterium leprae HSP18” (PLoS ONE, 2015).

Series [1] deals with the molecule itself. The experiment in a line: SEC; analytical gel filtration (TSK-GEL G4000SWXL, HPLC), 25°C, 0.5 mg/ml protein in 50 mM phosphate buffer pH 7.5 with 0.05, 0.15 or 0.5 M NaCl; number of subunits printed for 0.5 M NaCl.
Series [2] concerns the molecule itself. As to the kind of experiment: SEC; analytical gel filtration (TSK-GEL G4000SWXL, HPLC), 25°C, 0.5 mg/ml protein in 50 mM phosphate buffer pH 7.5, no NaCl; column calibrated with molecular weight standards. In general terms: Size exclusion chromatography separates by hydrodynamic size, large species first.

B1: Mycobacterium leprae HSP18 (natural protein, UniProt P12809 1-148, looked up)
chain: MLMRTDPFRELDRFAEQVLGTSARPAVMPMDAWREGEEFVVEFDLPGIKADSLDIDIERNVVTVRAERPGVDPDREMLAAERPRGVFNRQLVLGENLDTERILASYQEGVLKLSIPVAERAKPRKISVDRGNNGHQTINKTAHEIIDA
notes: wild-type small heat shock protein HSP18 (18 kDa antigen) of Mycobacterium leprae; Large homo-oligomer: 29 subunits without NaCl, approximately 12 subunits in 0.5 M NaCl (gel filtration); also called 18 kDa antigen
For the protein B1, the stoichiometry N (commonly the number of molecules, sites or subunits per partner or assembly) in series [1] is roughly 12 subunits; in series [2], 29 subunits.
